Measured values from PMC10249358 (2023).

B1: NOP53(192–207) peptide displayed on M13 phage [human] / GST-tagged merlin FERM domain [human] (parent complex)
chain 1: FYDLWASDNPLDRPLV
chain 2: FTVRIVTMDAEMEFNCEMKWKGKDLFDLVCRTLGLRETWFFGLQYTIKDTVAWLKMDKKVLDHDVSKEEPVTFHFLAKFYPENAEEELVQEITQHLFFLQVKKQILDEKIYCPPEASVLLASYAVQAKYGDYDPSVHKRGFLAQEELLPKRVINLYQMTPEMWEERITAWYAEHRGRARDEAEMEYLKIAQDLEMYGVNYFAIRNKKGTELLLGVDALGLHIYDPENRLTPKISFPWNEIRNISYSDKEFTIKPLDKKIDVFKFNSSKLRVNKLILQLCIGNHDLFMRRRK
B2: FAM83G(111–126) peptide displayed on M13 phage [human] / GST-tagged merlin FERM domain [human] (parent complex)
chain 1: AEPLPSLEYWPQKSDR
chain 2: B1 chain 2

Variants of: B1
Assay: clonal phage ELISA; ratio of A450 on immobilized GST-merlin to A450 on GST, normalized to 100% of WT peptide; no-peptide phage control est. 32%; read off a plot
chain 1 A6K gave a percent of parent of about 59 % binding.
With chain 1 L11K the percent of parent was about 14 % binding.
chain 1 D8K was tested, and the percent of parent was about 94 % binding.
With chain 1 D3A the percent of parent was about 29 % binding.
In the case of chain 1 D3K, the percent of parent is reported as about 33 % binding.
Work on chain 1 N9A yielded a percent of parent of about 93 % binding.
With chain 1 L4K the percent of parent was about 29 % binding.
With chain 1 S7A the percent of parent was about 120 % binding.
Work on chain 1 Y2K yielded a percent of parent of about 16 % binding.
In the case of chain 1 L15K, the percent of parent is reported as about 16 % binding.
In the case of chain 1 D12A, the percent of parent is reported as about 24 % binding.
chain 1 V16K gave a percent of parent of about 61 % binding.
For chain 1 P10K, the percent of parent was about 26 % binding.
chain 1 D8A gave a percent of parent of about 110 % binding.
In the case of chain 1 P14K, the percent of parent is reported as about 50 % binding.
Work on chain 1 F1K yielded a percent of parent of about 29 % binding.
chain 1 R13A was tested, and the percent of parent was about 97 % binding.
In the case of chain 1 W5K, the percent of parent is reported as about 31 % binding.

Variants of: B2
Assay: clonal phage ELISA; ratio of A450 on immobilized GST-merlin to A450 on GST, normalized to 100% of WT peptide; no-peptide phage control est. 29%; read off a plot
Work on chain 1 Q12A yielded a percent of parent of about 76 % binding.
For chain 1 P5K, the percent of parent was about 68 % binding.
Variant chain 1 L7K has a percent of parent of about 84 % binding.
Work on chain 1 S14A yielded a percent of parent of about 98 % binding.
In the case of chain 1 S6E, the percent of parent is reported as about 88 % binding.
For chain 1 W10K, the percent of parent was about 23 % binding.
In the case of chain 1 L4K, the percent of parent is reported as about 86 % binding.
In the case of chain 1 P11K, the percent of parent is reported as about 19 % binding.
With chain 1 K13A the percent of parent was about 91 % binding.
chain 1 Y9D showed a percent of parent of about 13 % binding.
Variant chain 1 K13D has a percent of parent of about 81 % binding.
Work on chain 1 R16A yielded a percent of parent of about 99 % binding.
chain 1 Y9K gave a percent of parent of about 21 % binding.
chain 1 D15A was tested, and the percent of parent was about 110 % binding.
Variant chain 1 E8A has a percent of parent of about 17 % binding.
